Source: the supplement of paper PMC9112550, “Optimization of the antimicrobial peptide Bac7 by deep mutational scanning” (BMC Biology, 2022)

System: Escherichia coli TOP10
Test: shrunken log2 fold change of peptide-encoding DNA abundance (4.5 h post-induction vs induction); higher = less antimicrobial activity (less host growth inhibition)
Conditions: time post-induction: 4.5 h; library: site-saturation at positions 5, 18, 19, 20
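Note: peptides expressed intracellularly from a pBAD plasmid library in pooled LB shake-flask culture, induced with 0.3% L-arabinose, DNA abundance read by NGS, three biological replicates, DESeq2 with apeglm shrinkage.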

| Sequence | shrunken log2 fold change |
| --- | --- |
| RRIRARPPRLPRPRPRPNEFPRP | -0.362 |
| RRIRHRPPRLPRPRPRPDIAPRP | 0.00497 |
| RRIRSRPPRLPRPRPRPTHRPRP | 0.0995 |
| RRIRNRPPRLPRPRPRPNLFPRP | -0.225 |
| RRIRKRPPRLPRPRPRPHTIPRP | 0.00577 |
| RRIRCRPPRLPRPRPRPCSWPRP | 0.0276 |
| RRIRRRPPRLPRPRPRPTSWPRP | 1.52 |
| RRIRPRPPRLPRPRPRPMLCPRP | 0.122 |
| RRIRLRPPRLPRPRPRPCSHPRP | -0.226 |
| RRIRNRPPRLPRPRPRPEWQPRP | -0.0264 |
| RRIRHRPPRLPRPRPRPEYSPRP | -0.0276 |
| RRIRPRPPRLPRPRPRPTKMPRP | 0.0417 |
| RRIRKRPPRLPRPRPRPEKRPRP | 0.81 |
| RRIRVRPPRLPRPRPRPKLVPRP | 0.194 |
| RRIRWRPPRLPRPRPRPWAAPRP | 0.351 |
| RRIRNRPPRLPRPRPRPECGPRP | 0.445 |
| RRIRYRPPRLPRPRPRPDLSPRP | -0.025 |
| RRIRLRPPRLPRPRPRPWTDPRP | -0.279 |
| RRIRARPPRLPRPRPRPHKEPRP | 0.131 |
| RRIRDRPPRLPRPRPRPVVMPRP | 0.194 |
| RRIRNRPPRLPRPRPRPKWCPRP | -0.00686 |
| RRIRSRPPRLPRPRPRPPAWPRP | 0.436 |
| RRIRMRPPRLPRPRPRPERKPRP | 2.06 |

| Sequence | shrunken log2 fold change |
| --- | --- |
| RRIRDRPPRLPRPRPRPTWFPRP | 0.295 |
| RRIRARPPRLPRPRPRPEARPRP | 1.42 |
| RRIRVRPPRLPRPRPRPYAIPRP | -0.033 |
| RRIRHRPPRLPRPRPRPPDEPRP | 0.43 |
| RRIRWRPPRLPRPRPRPNAVPRP | 0.259 |
| RRIRIRPPRLPRPRPRPMEEPRP | -0.00798 |
| RRIRERPPRLPRPRPRPGPQPRP | 0.231 |
| RRIRIRPPRLPRPRPRPKGLPRP | 0.121 |
| RRIRERPPRLPRPRPRPGSLPRP | -0.431 |
| RRIRARPPRLPRPRPRPLDLPRP | 0.227 |
| RRIRDRPPRLPRPRPRPLEFPRP | -0.158 |
| RRIRPRPPRLPRPRPRPTMQPRP | 0.393 |
| RRIRTRPPRLPRPRPRPEEDPRP | -0.00174 |
| RRIRCRPPRLPRPRPRPINPPRP | -0.00918 |
| RRIRTRPPRLPRPRPRPTSWPRP | 0.139 |
| RRIRCRPPRLPRPRPRPGRAPRP | 0.453 |
| RRIRRRPPRLPRPRPRPSRDPRP | 0.303 |
| RRIRSRPPRLPRPRPRPQLIPRP | -0.0943 |
| RRIRFRPPRLPRPRPRPQEQPRP | -0.0102 |
| RRIRWRPPRLPRPRPRPSNTPRP | -0.355 |
| RRIRIRPPRLPRPRPRPQSKPRP | -0.493 |
| RRIRHRPPRLPRPRPRPAMCPRP | -0.148 |
| RRIRSRPPRLPRPRPRPDGMPRP | -0.113 |

| Sequence | shrunken log2 fold change |
| --- | --- |
| RRIRKRPPRLPRPRPRPRHIPRP | -0.0145 |
| RRIRHRPPRLPRPRPRPHNTPRP | -0.709 |
| RRIRMRPPRLPRPRPRPSWDPRP | 0.709 |
| RRIRCRPPRLPRPRPRPGKTPRP | 0.102 |
| RRIRFRPPRLPRPRPRPLGYPRP | 0.0222 |
| RRIRWRPPRLPRPRPRPNANPRP | 0.109 |
| RRIRDRPPRLPRPRPRPPRDPRP | 0.771 |
| RRIRPRPPRLPRPRPRPCYWPRP | -0.294 |
| RRIRRRPPRLPRPRPRPVTYPRP | -0.0642 |
| RRIRKRPPRLPRPRPRPTVVPRP | 1 |
| RRIRIRPPRLPRPRPRPHGCPRP | -0.282 |
| RRIRFRPPRLPRPRPRPTQMPRP | 0.149 |
| RRIRRRPPRLPRPRPRPEAAPRP | 1.31 |
| RRIRPRPPRLPRPRPRPDDFPRP | -0.371 |
| RRIRTRPPRLPRPRPRPYRTPRP | 0.0638 |
| RRIRFRPPRLPRPRPRPWVTPRP | -0.0635 |
| RRIRSRPPRLPRPRPRPIWPPRP | 0.0426 |
| RRIRHRPPRLPRPRPRPLDKPRP | -0.0374 |
| RRIRYRPPRLPRPRPRPTFIPRP | -0.0922 |
| RRIRGRPPRLPRPRPRPDYPPRP | 0.121 |
| RRIRDRPPRLPRPRPRPCKQPRP | -0.00787 |
| RRIRFRPPRLPRPRPRPMSTPRP | -0.386 |
| RRIRVRPPRLPRPRPRPRDNPRP | -0.109 |

| Sequence | shrunken log2 fold change |
| --- | --- |
| RRIRNRPPRLPRPRPRPKMWPRP | 0.279 |
| RRIRIRPPRLPRPRPRPVWLPRP | 0.0726 |
| RRIRRRPPRLPRPRPRPCHAPRP | -0.0577 |
| RRIRVRPPRLPRPRPRPNYYPRP | -0.373 |
| RRIRHRPPRLPRPRPRPKPYPRP | -0.277 |
| RRIRARPPRLPRPRPRPSARPRP | 0.479 |
| RRIRNRPPRLPRPRPRPYNDPRP | -0.581 |
| RRIRFRPPRLPRPRPRPVGRPRP | 0.382 |
| RRIRNRPPRLPRPRPRPIYWPRP | 0.0553 |
| RRIRPRPPRLPRPRPRPGLGPRP | 0.389 |
| RRIRQRPPRLPRPRPRPMYEPRP | -0.01 |
| RRIRERPPRLPRPRPRPEVHPRP | 0.116 |
| RRIRMRPPRLPRPRPRPQAIPRP | -0.00149 |
| RRIRARPPRLPRPRPRPLAEPRP | 0.976 |
| RRIRARPPRLPRPRPRPTERPRP | 0.502 |
| RRIRQRPPRLPRPRPRPGFRPRP | 0.0901 |
| RRIRDRPPRLPRPRPRPRWLPRP | 0.511 |
| RRIRFRPPRLPRPRPRPALQPRP | -0.142 |
| RRIRFRPPRLPRPRPRPNMLPRP | -0.669 |
| RRIRWRPPRLPRPRPRPGDKPRP | -0.00136 |
| RRIRSRPPRLPRPRPRPAFFPRP | 0.328 |
| RRIRARPPRLPRPRPRPVKFPRP | -0.0699 |
